Measured values taken from paper PMC4888247.
“And” between values parts separate entries of the source, which are not always exact repeats. Equal values may be shown once.

Key:
human S100A8 (human) [1] = target: human S100A8 (human) (UniProt P05109); assay: crystal structure; crystal form 1, P212121, 2.2 A; Zn2+/Ca2+-bound (3 mM ZnCl2 added); 0.2 M ammonium acetate, 0.1 M Na acetate pH 4.0, 15 % PEG 3350, 0.4 % 2,2,2-trifluoroethanol; eight molecules per asymmetric unit
human S100A8 (human) [2] = target: human S100A8 (human) (UniProt P05109); assay: SEC; 24 ml Superdex 75, 20 mM HEPES pH 7.5, 200 mM NaCl, 5 mM CaCl2 (calcium only, no zinc); sizes from a calibration curve with protein standards
human S100A8 (human) [3] = target: human S100A8 (human) (UniProt P05109); assay: crystal structure; crystal form 2, C2221, 2.1 A; Zn2+/Ca2+-bound with a (Zn)2-cacodylate complex; 5 mM ZnCl2, 0.1 M Na cacodylate pH 6.5, 8 % PEG 8000; four molecules per asymmetric unit

- stoichiometry N (human S100A8 (human) [1]): 4
- stoichiometry N (human S100A8 (human) [2]): 4 and 2
- stoichiometry N (human S100A8 (human) [3]): 4
Substance: human S100A8 (from UniProt P05109 2-93) (natural protein)
